B1: human KCC2 (SLC12A5), K+-Cl- cotransporter 2, full length (natural protein, UniProt Q9H2X9 1-1139, looked up)
chain: MSRRFTVTSLPPAGPARSPDPESRRHSVADPRHLPGEDVKGDGNPKESSPFINSTDTEKGKEYDGKNMALFEEEMDTSPMVSSLLSGLANYTNLPQGSREHEEAENNEGGKKKPVQAPRMGTFMGVYLPCLQNIFGVILFLRLTWVVGIAGIMESFCMVFICCSCTMLTAISMSAIATNGVVPAGGSYYMISRSLGPEFGGAVGLCFYLGTTFAGAMYILGTIEILLAYLFPAMAIFKAEDASGEAAAMLNNMRVYGTCVLTCMATVVFVGVKYVNKFALVFLGCVILSILAIYAGVIKSAFDPPNFPICLLGNRTLSRHGFDVCAKLAWEGNETVTTRLWGLFCSSRFLNATCDEYFTRNNVTEIQGIPGAASGLIKENLWSSYLTKGVIVERSGMTSVGLADGTPIDMDHPYVFSDMTSYFTLLVGIYFPSVTGIMAGSNRSGDLRDAQKSIPTGTILAIATTSAVYISSVVLFGACIEGVVLRDKFGEAVNGNLVVGTLAWPSPWVIVIGSFFSTCGAGLQSLTGAPRLLQAISRDGIVPFLQVFGHGKANGEPTWALLLTACICEIGILIASLDEVAPILSMFFLMCYMFVNLACAVQTLLRTPNWRPRFRYYHWTLSFLGMSLCLALMFICSWYYALVAMLIAGLIYKYIEYRGAEKEWGDGIRGLSLSAARYALLRLEEGPPHTKNWRPQLLVLVRVDQDQNVVHPQLLSLTSQLKAGKGLTIVGSVLEGTFLENHPQAQRAEESIRRLMEAEKVKGFCQVVISSNLRDGVSHLIQSGGLGGLQHNTVLVGWPRNWRQKEDHQTWRNFIELVRETTAGHLALLVTKNVSMFPGNPERFSEGSIDVWWIVHDGGMLMLLPFLLRHHKVWRKCKMRIFTVAQMDDNSIQMKKDLTTFLYHLRITAEVEVVEMHESDISAYTYEKTLVMEQRSQILKQMHLTKNEREREIQSITDESRGSIRRKNPANTRLRLNVPEETAGDSEEKPEEEVQLIHDQSAPSCPSSSPSPGEEPEGEGETDPEKVHLTWTKDKSVAEKNKGPSPVSSEGIKDFFSMKPEWENLNQSNVRRMHTAVRLNEVIVKKSRDAKLVLLNMPGPPRNRNGDENYMEFLEVLTEHLDRVMLVRGGGREVITIYS
notes: K+-Cl- cotransporter KCC2 (SLC12A5), human, full length; Printed residues: Y407, N-terminal loop A65-N83; It says the KCC2 structure is very similar to that of KCC3; source: expressed and purified

How the values were obtained:
[1] = biological target: human KCC3 (SLC12A6), K+-Cl- cotransporter 3, full length (human) (UniProt Q9UHW9); experiment: cryo-EM structure; single particle cryo-EM of the purified full-length transporter, no inhibitor; KCC2 at 3.2 Å, KCC3 at 3.3 Å overall
[2] = biological target: the molecule itself; experiment: as above

| Molecule | stoichiometry N [1] | binding result [2] |
| --- | --- | --- |
| human KCC3 (SLC12A6), K+-Cl- cotransporter 3, full length (from UniProt Q9UHW9-2 1-1099) (natural protein) | 2 | – |
| B1 | – | binds |

Source: article PMC8182806, “Cryo-EM structures of the full-length human KCC2 and KCC3 cation-chloride cotransporters” (Cell Research, 2020)
